Reference: patent US20260085338

Experiments:
[1] = system: 67PfluR64PP RNA polymerase

phi15 lysozyme (wild-type)
reduction of msfGFP output upon lysozyme induction (P. putida, 4 mM Rha) (phi15 RNA polymerase): The phi15 lysozyme caused only a -30% reduction of the msfGFP output

PPPL-1 lysozyme
reduction of msfGFP output upon lysozyme induction (P. putida, 4 mM Rha) (PPPL-1 RNA polymerase): PPPL-1 (-39%)

phi15 lysozyme (G3RQ)
dynamic range of the system (fold induction), lysozyme integrated in PP4305, P. putida SEM11 (phi15 RNA polymerase): the dynamic range of the system increased from 33 to 107- and 70-fold, respectively
dynamic range of the system (fold induction), lysozyme integrated in PP5388, P. putida SEM11 (phi15 RNA polymerase): the dynamic range of the system increased from 33 to 107- and 70-fold, respectively

Pf-10 lysozyme
reduction of msfGFP output upon lysozyme induction (P. putida, 4 mM Rha) (Pf-10 RNA polymerase): Pf-10 (-80%)

67PfluR64PP lysozyme
reduction of leaky msfGFP expression caused by the phi15 RNAP (P. putida, 4 mM Rha) (phi15 RNA polymerase): The 67PfluR64PP lysozyme reduced the leaky expression by 58%
reduction of msfGFP output upon lysozyme induction (P. putida, 4 mM Rha) [1]: 67PfluR64PP (-51%)
